What was measured:
[1] = biological target: mouse serum albumin (mouse) (UniProt P07724); assay: SPR; Biacore 3000; mouse serum albumin immobilized on CM5 chip (approx. 800 RU); dilution series of ABD-PrlRA injected; 25°C, 40 μl/min; 1:1 Langmuir model
[2] = biological target: prolactin receptor (PrlR), extracellular domain (UniProt P16471); assay: SPR; Biacore 3000; PrlR immobilized on CM5 chip (approx. 300 RU); dilution series of analyte injected; 25°C, 40 μl/min; PBS with 0.05% Tween-20; 1:1 Langmuir model
[3] = biological target: prolactin receptor (PrlR), extracellular domain (UniProt P16471); assay: SPR; Biacore 3000; extracellular domain of PrlR immobilized; ABD-PrlRA dilution series with HSA added to 400 nM, incubated 4 h at 4°C; PBS with 0.05% Tween-20 and HSA as running buffer; 25°C, 40 μl/min; 1:1 Langmuir model (called an approximation)
[4] = biological target: prolactin receptor (PrlR), extracellular domain (UniProt P16471); assay: as above; remark: listed apart in the source
[5] = biological target: T1, prolactin receptor (PrlR), extracellular domain (UniProt P16471 25-234); assay: SPR; Biacore 3000; PrlR immobilized on CM5 chip (approx. 300 RU); dilution series of analyte injected; 25°C, 40 μl/min; PBS with 0.05% Tween-20; 1:1 Langmuir model; settings: both partners purified
T1 construct: prolactin receptor, extracellular domain, from Sino Biological; No catalogue number printed; source: bought: Sino Biological
T1 sequence (looked up): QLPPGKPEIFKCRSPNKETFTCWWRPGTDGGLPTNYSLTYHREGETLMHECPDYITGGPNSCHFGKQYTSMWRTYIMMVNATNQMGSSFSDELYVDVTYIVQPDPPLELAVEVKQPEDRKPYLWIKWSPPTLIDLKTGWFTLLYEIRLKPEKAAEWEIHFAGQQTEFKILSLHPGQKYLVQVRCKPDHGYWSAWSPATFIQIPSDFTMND

[6] = biological target: T1, prolactin receptor (PrlR), …; assay: as above; settings: both partners purified; remark: listed apart in the source

Sequence of mouse serum albumin (mouse) (P07724 25-608): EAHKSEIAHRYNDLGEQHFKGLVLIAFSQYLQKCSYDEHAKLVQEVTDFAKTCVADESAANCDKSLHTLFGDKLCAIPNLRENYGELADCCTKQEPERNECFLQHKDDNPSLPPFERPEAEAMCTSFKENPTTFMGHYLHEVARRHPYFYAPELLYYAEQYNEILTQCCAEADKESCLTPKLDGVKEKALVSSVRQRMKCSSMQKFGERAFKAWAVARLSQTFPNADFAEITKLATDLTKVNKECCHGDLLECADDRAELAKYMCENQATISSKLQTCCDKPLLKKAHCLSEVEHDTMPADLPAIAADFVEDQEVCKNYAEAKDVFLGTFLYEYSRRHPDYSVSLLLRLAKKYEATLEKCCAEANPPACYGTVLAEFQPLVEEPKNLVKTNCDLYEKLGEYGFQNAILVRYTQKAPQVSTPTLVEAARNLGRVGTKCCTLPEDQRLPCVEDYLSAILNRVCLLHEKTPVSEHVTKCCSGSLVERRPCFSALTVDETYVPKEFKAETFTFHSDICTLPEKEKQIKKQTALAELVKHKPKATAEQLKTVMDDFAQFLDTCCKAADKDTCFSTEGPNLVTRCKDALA

## ABD-PrlRA (fusion of an N-terminal albumin binding domain ABD035 and the prolactin receptor antagonist PrlRA) (from UniProt P01236 29-227)
[1]
  Kd: 0.38 nM
  koff: 0.0012 s⁻¹
  kon: 3.1e+06 M⁻¹ s⁻¹
[2]
  Kd: 2.3 nM
  koff: 0.00074 s⁻¹
  kon: 330000 M⁻¹ s⁻¹

## complex of HSA and ABD-PrlRA (from UniProt P02768 25-609; P01236 29-227)
[3]
  Kd: 23 nM
[4]
  Kd: 21 nM
  koff: 0.00078 s⁻¹
  kon: 39000 M⁻¹ s⁻¹

B1: Prolactin (Prl*), commercially obtained (ligand, UniProt P01236 29-227, looked up)
chain: LPICPGGAARCQVTLRDLFDRAVVLSHYIHNLSSEMFSEFDKRYTHGRGFITKAINSCHTSSLATPEDKEQAQQMNQKDFLSLIVSILRSWNEPLYHLVTEVRGMQEAPEAILSKAVEIEEQTKRLLEGMELIVSQVHPETKENEIYPVWSGLPSLQMADEESRLSAYYNLLHCLRRDSHKIDNYLKLLKCRIIHNNNC
notes: prolactin from Sino Biological; No catalogue number printed; source: bought: Sino Biological
[5]
  Kd: 23 ± 4 nM

B2: prolactin receptor antagonist PrlRA (ligand, human)
chain: MGSSRSQVTLRDLFDRAVVLSHYIHNLASEMFSEFDKRYTHGRGFITKAINSCHTSSLATPEDKEQALQMNQKDFLSLIVSILRSWNEPLYHLVTEVRGMQEAPEAILSKAVEIEEQTKRLLERMELIVSQVHPETKENEIYPVWSGLPSLQMADEESRLSAYYNLLHCLRRDSHKIDNYLKLLRCRIIHNNNC
[6]
  Kd: 3.4 ± 0.5 nM
  koff: 0.00088 s⁻¹
  kon: 260000 M⁻¹ s⁻¹

B3: prolactin (Prl), produced in house (ligand, human)
chain: MGSSLPICPGGAARCQVTLRDLFDRAVVLSHYIHNLSSEMFSEFDKRYTHGRGFITKAINSCHTSSLATPEDKEQAQQMNQKDFLSLIVSILRSWNEPLYHLVTEVRGMQEAPEAILSKAVEIEEQTKRLLEGMELIVSQVHPETKENEIYPVWSGLPSLQMADEESRLSAYYNLLHCLRRDSHKIDNYLKLLKCRIIHNNNC
notes: prolactin, human; the Prl gene itself is not separately called human; also called in house produced Prl
[6]
  Kd: 8.4 ± 0.2 nM
  koff: 0.0012 s⁻¹
  kon: 140000 M⁻¹ s⁻¹

Source: publication PMC6504076, “An in vivo half-life extended prolactin receptor antagonist can prevent STAT5 phosphorylation” (PLoS ONE, 2019)
